# Laboratory results published in the RNAGym collection of RNA variant scans (doi:10.1093/nar/gkz1192).
# B1: CPEB3 Ribozyme (parent)
# chain: UAACAGGGGGCCACAGCAGAAGCGUUCACGUCGCAGCCCCUGUCAGAUUCUGGUGAAUCUGCGAAUUCUGCUGUAUAUCUC
# Variants of: B1
# Assay: self-cleavage, relative activity (ratio to wild type); higher = more cleavage; in vitro, sequencing
# Outline: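 Libraries of CPEB3 self-cleaving ribozyme mutants came from rounds of error-prone PCR and carried barcodes, which DNA sequencing matched to variants. In vitro transcription used T7 RNA polymerase at 37°C for 5 hours, with a further 15 min in DNase I before EDTA stopped the reaction; the ribozymes cleaved during both steps. The RNA was reverse transcribed with template switching and sequenced on Illumina. Relative activity is the cleaved/total read fraction of a variant divided by that of the unmutated ribozyme, averaged over three batches with at least 5 reads.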
row,Variant,self-cleavage
1,A5G A56G,0.39
2,A5G A56U,0.43
3,A5G C59U,0.65
4,A5G C59A,0.2
5,A5G A47C,0.59
6,A5G A47G,0.65
7,A5G A47U,0.34
8,A5G C11G,0.5
9,A5C C34G,0.41
10,A5C C34U,0.47
11,A5G C29G,0.57
12,A5G C29U,0.26
13,A5C U58A,0.49
14,A5C U58C,0.58
15,A5G C17A,0.3
16,A5G C17U,0.47
17,A5G G6U,0.23
18,A5G G6A,0.29
19,A5G C81A,1.1
20,A5G A28C,0.61
21,A5G A28U,0.55
22,A5G A28G,0.48
23,A5C U41A,0.28
24,A5C U41G,0.35

row,Variant,self-cleavage
1,A5C A75G,0.69
2,A5G A13G,0.56
3,A5G A13U,0.98
4,A5G A13C,0.76
5,A5C U49C,0.54
6,A5G A65U,0.19
7,A5G A65C,0.25
8,A5G A65G,0.39
9,A5G C12A,0.4
10,A5G C12U,1.12
11,A5G G22C,0.34
12,A5G G22A,0.24
13,A5C G63C,0.95
14,A5C G63U,0.91
15,A5C A65G,0.44
16,A5C U66C,0.54
17,A5G C34G,0.52
18,A5G C38A,0.44
19,A5G C38U,0.46
20,A5G C38G,0.37
21,A5C C37G,0.87
22,A5C C37U,0.76
23,A5C G36A,0.31
24,A5G G10U,0.39

row,Variant,self-cleavage
1,A5G A75U,0.83
2,A5G A75C,0.57
3,A5G A75G,0.49
4,A5G C37U,0.63
5,A5C G6U,0.32
6,A5G C23U,0.36
7,A5G C23G,0.61
8,A5C C29U,0.42
9,A5G G8U,0.46
10,A5G G8A,0.23
11,A5C C68G,0.23
12,A5G G33A,0.24
13,A5G G33U,0.43
14,A5G G33C,0.38
15,A5C G9U,0.52
16,A5C G9A,0.41
17,A5G G16U,0.54
18,A5G G16A,0.57
19,A5C C17A,0.19
20,A5C U43A,1.13
21,A5C U43G,0.38
22,A5C U43C,0.57
23,A5G A57G,0.64
24,A5G A57C,0.28

row,Variant,self-cleavage
1,A5G A57U,1.04
2,A5C U26A,1.04
3,A5C U26C,0.58
4,A5G A20G,0.54
5,A5G A20C,0.58
6,A5G A20U,0.37
7,A5G C44U,0.43
8,A5C U60C,0.64
9,A5C U60G,0.67
10,A5C U60A,0.64
11,A5G G19U,0.45
12,A5G G19C,0.41
13,A5G G19A,0.53
14,A5G A15C,0.83
15,A5G A15G,0.6
16,A5G A15U,0.61
17,A5C C62U,0.13
18,A5G G36U,0.72
19,A5G G36A,0.29
20,A5G C39U,0.67
21,A5G C39A,0.39
22,A5C U25C,0.15
23,A5C U74C,1.19
24,A5G C79U,0.92

row,Variant,self-cleavage
1,A5G C79A,1.01
2,A5G C32A,0.28
3,A5G C32G,0.39
4,A5G C32U,0.48
5,A5C U80C,1.05
6,A5C U80A,1.19
7,A5C G46U,0.06
8,A5G C14U,0.8
9,A5G A64G,0.58
10,A5G A64U,0.35
11,A5C G10A,0.09
12,A5C U78C,0.89
13,A5C C50A,0.8
14,A5C C71U,0.57
15,A5G C27U,0.13
16,A5G C27A,0.44
17,A5C U48C,0.94
18,A5G G7U,0.39
19,A5G G7A,0.6
20,A5G G7C,0.5
21,A5C U51C,0.6
22,A5C U31A,0.75
23,A5C U31C,0.8
24,A5G A35U,0.36

row,Variant,self-cleavage
1,A5G A35C,0.85
2,A5G A35G,1.18
3,A5G G42C,0.49
4,A5G G42A,0.4
5,A5C U54G,0.81
6,A5C U54C,1.09
7,A5C G55U,1.13
8,A5G A45U,0.36
9,A5G A45C,0.42
10,A5G A45G,0.63
11,A5C G8C,0.36
12,A5C G8A,0.46
13,A5C G30U,0.24
14,A5C G30A,0.19
15,A5G C68A,0.46
16,A5G C62A,0.22
17,A5G C62G,0.14
18,A5G C62U,0.35
19,A5C A64U,1
20,A5C C23G,0.18
21,A5C U69A,0.67
22,A5C U69C,0.59
23,A5C U69G,0.67
24,A5C U72C,1.09

row,Variant,self-cleavage
1,A5C U72A,0.98
2,A5G,0.74
3,A5G A77U,0.78
4,A5G A77G,0.71
5,A5G G24U,0.24
6,A5G G24C,0.89
7,A5G G30A,0.51
8,A5G G30U,0.11
9,A5C C32G,0
10,A5G A18G,0.5
11,A5G A18U,0.33
12,A5G A18C,0.48
13,A5G C40U,0.27
14,A5G C40A,0.26
15,A5G C40G,0.22
16,A5G G9A,0.39
17,A5C U67C,0.22
18,A5C U67G,0.27
19,A5C U67A,0.48
20,A5G C50U,0.5
21,A5G A21G,0.43
22,A5G A21C,0.39
23,A5G A21U,0.33
